T1: GPR41 (Homo sapiens, UniProt O14843)
T1 sequence (O14843 1-346): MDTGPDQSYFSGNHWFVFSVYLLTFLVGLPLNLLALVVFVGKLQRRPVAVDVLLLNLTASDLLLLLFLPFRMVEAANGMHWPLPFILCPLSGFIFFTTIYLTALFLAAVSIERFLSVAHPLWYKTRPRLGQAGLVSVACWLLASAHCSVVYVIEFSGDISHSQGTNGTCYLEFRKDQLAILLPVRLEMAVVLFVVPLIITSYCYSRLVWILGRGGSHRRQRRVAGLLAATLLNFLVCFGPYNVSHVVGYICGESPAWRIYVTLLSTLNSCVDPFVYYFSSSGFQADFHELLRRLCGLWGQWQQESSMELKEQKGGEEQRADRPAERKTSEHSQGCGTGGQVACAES

B1: 7A1-IL: 7A1 background with Luc2.0 F369I, F518L; SEQ ID NO:70, 71 (protein)
chain: MPGAVGKVVPFIEAKVVDLDTGKTLGVNQRGELCVRGPMIMSGYVNNPEATNALIDKDGWLHSGDIAYWDEDEHFFIVDRLKSLIKYKGYQVAPAELESILLQHPNIFDAGVAGLPDDDAGELPAAVVVLEHGKTMTEKEIVDYVASQVTTAKKLRGGVVLVDEVPKGLTGKLDARKIREILIKAKKGSNWDSGCSREGMYESFIESLPFLKSLEFSARLKVVDVIGTKVYNDGEQIIAQGDSADSFFIIESGEVKITMKRKGKSEVEENGAVEIARCSRGQYFGELALVTNKPRAASAHAIGTVKCLAMDVQAFERLLGPCMEIMKRNIATYEEQLVALFGTNMDIVAKNIKKGPAPFYPLEDGTAGEQLHKAMKRYALVPGTIAFTDAHIEVDITYAEYFEMSVRLAEAMKRYGLNTNHRIVVCSENSLQFFMPVLGALFIGVAVAPANDIYNERELLNSMGISQPTVVFVSKKGLQKILNVQKKLPIIQKIIIMDSKTDYQGFQSMYTFVTSHLPPGFNEYDFVPESFDRDKTIALIMNSSGSTGLPKGVALPHRTACVRFSHARDPIFGNQIIPDTAILSVVPFHHGFGMFTTLGYLICGFRVVLMYRFEEELFLRSLQDYKIQSALLVPTLFSFFAKSTLIDKYDLSNLHEIASGGAPLSKEVGEAVAKRFHLPGIRQGYGLTETTSAILITPEGV
B2: 7A1-QY: 7A1 background with Luc2.0 K541Q and RIIβB F407Y; SEQ ID NO:109, 110 (protein)
chain: B1 chain with I12F, L161F, K184Q, F341Y
B3: 7A1-LQ: 7A1 background with Luc2.0 F518L, K541Q; SEQ ID NO:64, 65 (protein)
chain: B1 chain with I12F, K184Q
B4: 7A1-ILY: 7A1 background with Luc2.0 F369I, F518L and RIIβB F407Y; SEQ ID NO:27, 28 (protein)
chain: B1 chain with F210I, F248Y, F341Y, F359L
B5: 7A1-LY: 7A1 background with Luc2.0 F518L and RIIβB F407Y; SEQ ID NO:25, 26 (protein)
chain: B1 chain with I12F, F341Y
B6: 7A1-Q: 7A1 background with Luc2.0 K541Q; SEQ ID NO:62, 63 (protein)
chain: B1 chain with I12F, L161F, K184Q
B7: 7A1-I: 7A1 background with Luc2.0 F369I; SEQ ID NO:66, 67 (protein)
chain: B1 chain with L161F
B8: 7A1-IY: 7A1 background with Luc2.0 F369I and RIIβB F407Y; SEQ ID NO:39, 40 (protein)
chain: B1 chain with L161F, F341Y
B9: 7A1-LQY: 7A1 background with Luc2.0 F518L, K541Q and RIIβB F407Y; SEQ ID NO:58, 59 (protein)
chain: B1 chain with I12F, K184Q, F341Y
B10: 7A1-ILQY: 7A1 background with Luc2.0 F369I, F518L, K541Q and RIIβB F407Y; SEQ ID NO:31, 32 (protein)
chain: B1 chain with K184Q, F341Y

Numbering of substitutions follows the chain as printed. Names may count otherwise.

One experiment relates to GPR41. Nature of the experiment: Sodium proprionate CRC with biosensor variants in HEK293 cells stably expressing GPR41. The format is cell-based. The conditions noted are these: ratio of RLU of FSK treated well to untreated well. The procedure: (§1) After 24 hours, the cells were transiently transfected with one of the cAMP biosensor variants (Tables 7A and 7B). After another 24 hours, the cells were equilibrated for 2 hours at room temperature using 5 mM EF-luc in CO2 independent media with 10% FBS. Prior to the addition of the compounds, luminescence was measured. The compounds (12× stock in CO2 independent media without FBS) were then added to the cells. For GPR41 expressing cells, sodium proprionate CRC was added. […] The cells were allowed to incubate another 30 minutes and luminescence read on a Varioskan Flash. EC50 values and fold responses were calculated for each of the clones with each of the compounds with or without FSK. In addition, variants […]7 (Example VIIB), 16A2 (Example VIIB) and GS358 were also screened.
As for B1, the “Fold Signal Change” value is given as 200.0 fold.
Consider B2, for which the “Fold Signal Change” value amounted to 87.6 fold.
For the molecule B3, the “Fold Signal Change” value is on record as 85.2 fold.
For B4, the “Fold Signal Change” value came to 194.6 fold.
Take B5: the “Fold Signal Change” value was found to be 141.7 fold.
As for B6, the “Fold Signal Change” value is given as 71.6 fold.
The same measure, in the same setting: in the case of B7 it was 133.9 fold; in that of B8, 165.7 fold.
On the same count and under the same terms, in the case of B9 it was 153.1 fold; in that of B10, 220.1 fold.

In another experiment the target is T1, GPR41. Described as above. The experiment is classed as cell-based. The note with it: with FSK 1 μM. The method, then:
as §1
Take B1: the “Fold Response Na proprionate + FSK(1 μM)” value was 4.36 fold.
For B2, the “Fold Response Na proprionate + FSK(1 μM)” value is listed as 161.29 fold.
As for B3, the “Fold Response Na proprionate + FSK(1 μM)” value was determined as 6.6 fold.
Regarding B4, the “Fold Response Na proprionate + FSK(1 μM)” value came to 8.96 fold.
Consider B5, for which the “Fold Response Na proprionate + FSK(1 μM)” value is reported as 62.19 fold.
Consider B6, for which the “Fold Response Na proprionate + FSK(1 μM)” value came out at 4.26 fold.
Turning to B7, the “Fold Response Na proprionate + FSK(1 μM)” value worked out at 6.60 fold.
For the molecule B8, the “Fold Response Na proprionate + FSK(1 μM)” value was 8.66 fold.
On to B10, for which the “Fold Response Na proprionate + FSK(1 μM)” value is 8.13 fold.

The same experiment, now with this note: without FSK, ratio of induced to uninduced signal.
Regarding B1, the “Fold Response Na proprionate” value came out at 4.66 fold.
Consider B2, for which the “Fold Response Na proprionate” value stood at 1.68 fold.
Take B3: the “Fold Response Na proprionate” value is recorded as 2.70 fold.
Take B4: the “Fold Response Na proprionate” value was 2.49 fold.
Take B5: the “Fold Response Na proprionate” value came out at 2.15 fold.
On to B6, for which the “Fold Response Na proprionate” value is given as 2.26 fold.
On to B7, for which the “Fold Response Na proprionate” value is given as 3.07 fold.
As to B8, the “Fold Response Na proprionate” value is reported as 2.81 fold.
Same read-out and setting: in the case of B9 it was 1.94 fold.
For the molecule B10, the “Fold Response Na proprionate” value is given as 2.57 fold.
